Literature values as cited in article PMC3064480.

Target: TβRII ED (Homo sapiens) (UniProt P37173)
Test: SPR

Chain of TβRII ED (Homo sapiens) (P37173 23-166): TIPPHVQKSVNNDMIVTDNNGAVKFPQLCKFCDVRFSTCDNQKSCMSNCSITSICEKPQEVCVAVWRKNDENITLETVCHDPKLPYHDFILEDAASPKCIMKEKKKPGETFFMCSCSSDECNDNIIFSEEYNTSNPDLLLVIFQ
Chain of TGF-β1 (P01137 279-390): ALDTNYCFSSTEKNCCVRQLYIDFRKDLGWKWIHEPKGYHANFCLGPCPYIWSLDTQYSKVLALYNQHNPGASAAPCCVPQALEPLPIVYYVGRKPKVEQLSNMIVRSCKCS

Kd: 5 pM
Substance: TGF-β1 (from UniProt P01137)
